From PMC9917220

B1: AS2-3 (61mer; identical to AS7-36 and AS7-83) (structured_DNA)
DNA: TACAGGCAGTAAGGCCGTGTCATCAGGATGGGCACTTTCCTAGGGCAGGTTAGCAACAGGA

What was measured:
human thrombin [1] = target: T1, human thrombin (Homo sapiens, UniProt P00734;P00734 328-363;364-622); assay: ITC; 25 C, binding buffer, 1 mM Mg2+; Binding Buffer: 50 mM Tris-HCl, 100 mM NaCl, 1 mM MgCl2, 1 M DTT (so in the source), pH not stated; ITC and CD at 25 C
human thrombin [2] = target: T1, human thrombin; assay: CD; 0.5 uM thrombin, 5 uM DNA; no significant spectral change; Binding Buffer: 50 mM Tris-HCl, 100 mM NaCl, 1 mM MgCl2, 1 M DTT (so in the source), pH not stated; ITC and CD at 25 C

| Binder | Kd (human thrombin [1]) [µM] | binding result (human thrombin [2]) |
| --- | --- | --- |
| B1 | 3.36 |  |
| TACAGGCAGTAAGGCCGTGTCATCAGGATGGGCACTTTCC (structured_DNA) [40mer AS2-3] |  | no binding |
